Data published in the supplement of paper PMC7877785.
± gives the uncertainty stated by the source.

Assay: self-splicing fitness, log relative to wild type (ln ratio); higher = more splicing; Tetrahymena group I intron in knt gene, E. coli kanamycin selection, DiMSum; sequences stand for … in CUCUCU…GGAGGGAAAAGUUAUCAGGCAUGCACCUGGUAGCUAGUCUUUAAACCAAUAGAUUGCAUCGGUUUAAAAGGCAAGACCGUCAAAUUGCGGGAAAGGGGUCAACAGCCGUUCAGUACCAAGUCUCAGGGGAAACUUUGAGAUGGCCUUGCAAAGGGUAUGGUAAUAAGCUGACGGACAUGGUCCUAACCACGCAGCCAAGUCCUAAGUCAACAGAUCUUCUGUUGAUAUGGAUGCAGUUCACAGACUAAAUGUCGGUCGGGGAAGAUGUAUUCUUCUCAUAAGAUAUAGUCGGACCUCUCCUUAAUGGGAGCUAGCGGAUGAAGUGAUGCAACACUGGAGCCGCUGGGAACUAAUUUGUAUGCGAAAGUAUAUUGAUUAGUUUUGGAGUACUCGUGGUCG
How it was run: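 Six replicate transformations of E. coli BL21(DE3) with a pET-22b(+) library were grown overnight at 37°C or 30°C. The library randomised all eight P1ex-region intron nucleotides, the intron lying in the knt kanamycin-resistance gene, and plates were LB agar with or without 25 μg/mL kanamycin plus 100 μg/mL carbenicillin, 50 μM IPTG and 0.2% rhamnose. Pooled colonies were amplicon-sequenced on an Illumina HiSeq 2500, and fitness is the DiMSum error-weighted combination of wild-type-normalised replicate fold changes, kanamycin versus none.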

| Sequence | self-splicing fitness (ln) (30 °C) | self-splicing fitness (ln) (37 °C) |
| --- | --- | --- |
| GGUGAGCAAUAUUACGUUUU | -2.94 ± 0.26 | -1.6 ± 0.23 |
| GGUUAGCAAUAUUACGAAAU | -1.45 ± 0.11 | -0.492 ± 0.14 |
| GGUUAGCAAUAUUACGACAA | 0.354 ± 0.25 | 0.974 ± 0.3 |
| GGUUAGCAAUAUUACGACCG | -0.946 ± 0.25 | 1.43 ± 0.36 |
| GGUUAGCAAUAUUACGCAGG | -3.31 ± 0.24 | -2.05 ± 0.2 |
| GGUUAGCAAUAUUACGCAUU | -0.941 ± 0.075 | -0.185 ± 0.086 |
| GGUUAGCAAUAUUACGCGAA | -0.818 ± 0.25 | -0.0649 ± 0.35 |
| GGUUAGCAAUAUUACGGAAC | -1.48 ± 0.3 | -0.799 ± 0.46 |
| GGUUAGCAAUAUUACGGAUA | -1.23 ± 0.14 | 0.704 ± 0.17 |
| GGUUAGCAAUAUUACGGAUC | -1.53 ± 0.18 | 0.131 ± 0.28 |
| GGUUAGCAAUAUUACGGCGG | -2.05 ± 0.15 | -1.68 ± 0.16 |
| GGUUAGCAAUAUUACGGGAC | -3 ± 0.3 | -1.44 ± 0.21 |
| GGUUAGCAAUAUUACGGGGG | – | -2.37 ± 0.44 |
| GGUUAGCAAUAUUACGGUCG | -0.323 ± 0.13 | -0.0539 ± 0.18 |
| GGUUAGCAAUAUUACGUAAU | -2.05 ± 0.22 | -0.725 ± 0.21 |
| GGUUAGCAAUAUUACGUCAU | -1.03 ± 0.21 | 0.277 ± 0.21 |
| GGUUAGCAAUAUUACGUCCA | -1.17 ± 0.3 | -0.199 ± 0.34 |
| GGUUAGCAAUAUUACGUGAC | -2.98 ± 0.28 | -2.33 ± 0.34 |
| GGUUAGCAAUAUUACGUGCU | -2.76 ± 0.46 | -2.35 ± 0.3 |
| GGUUAGCAAUAUUACGUGUU | -1.43 ± 0.096 | -0.323 ± 0.098 |
| GUAAAGCAAUAUUACGACCA | -0.123 ± 0.093 | 0.27 ± 0.13 |
| GUAAAGCAAUAUUACGACGG | -3.85 ± 0.29 | -2.28 ± 0.23 |
| GUAAAGCAAUAUUACGACUC | 0.441 ± 0.1 | 1.06 ± 0.15 |
| GUAAAGCAAUAUUACGAUCU | 0.147 ± 0.057 | 0.161 ± 0.069 |

| Sequence | self-splicing fitness (ln) (30 °C) | self-splicing fitness (ln) (37 °C) |
| --- | --- | --- |
| GUAAAGCAAUAUUACGAUUA | 0.307 ± 0.087 | 0.518 ± 0.1 |
| GUAAAGCAAUAUUACGCCUA | -0.413 ± 0.14 | 0.493 ± 0.19 |
| GUAAAGCAAUAUUACGCGCA | 0.459 ± 0.16 | -0.0064 ± 0.17 |
| GUAAAGCAAUAUUACGCGCG | -0.817 ± 0.14 | -0.615 ± 0.24 |
| GUAAAGCAAUAUUACGCGUU | -1.65 ± 0.088 | -0.906 ± 0.099 |
| GUAAAGCAAUAUUACGGCGC | 0.572 ± 0.13 | -0.000459 ± 0.14 |
| GUAAAGCAAUAUUACGGCUA | 0.4 ± 0.052 | 0.518 ± 0.075 |
| GUAAAGCAAUAUUACGGGUC | -1.78 ± 0.1 | -2.99 ± 0.12 |
| GUAAAGCAAUAUUACGUAUU | -1.87 ± 0.076 | -1.69 ± 0.1 |
| GUAAAGCAAUAUUACGUCUG | -1.56 ± 0.11 | 0.0989 ± 0.11 |
| GUAAAGCAAUAUUACGUCUU | -0.455 ± 0.1 | 0.291 ± 0.12 |
| GUAAAGCAAUAUUACGUGUC | -1.85 ± 0.06 | -1.14 ± 0.079 |
| GUAAAGCAAUAUUACGUUCU | -0.888 ± 0.05 | -0.135 ± 0.071 |
| GUACAGCAAUAUUACGACAC | -0.333 ± 0.099 | 0.291 ± 0.11 |
| GUACAGCAAUAUUACGACGA | -1.54 ± 0.14 | -1.07 ± 0.12 |
| GUACAGCAAUAUUACGAGCU | -2.18 ± 0.15 | -1.51 ± 0.15 |
| GUACAGCAAUAUUACGAUUU | -1.28 ± 0.11 | -0.49 ± 0.089 |
| GUACAGCAAUAUUACGCAGC | -2.41 ± 0.17 | -2.33 ± 0.23 |
| GUACAGCAAUAUUACGCGUA | -3.44 ± 0.32 | -1.71 ± 0.24 |
| GUACAGCAAUAUUACGCUGG | -2.55 ± 0.13 | -0.491 ± 0.12 |
| GUACAGCAAUAUUACGGAGA | -3.87 ± 0.35 | -2.81 ± 0.21 |
| GUACAGCAAUAUUACGGCCA | -0.539 ± 0.17 | -1.13 ± 0.17 |
| GUACAGCAAUAUUACGGCUC | 0.189 ± 0.083 | 1.05 ± 0.097 |
| GUACAGCAAUAUUACGGCUU | -0.512 ± 0.08 | 0.22 ± 0.09 |

| Sequence | self-splicing fitness (ln) (30 °C) | self-splicing fitness (ln) (37 °C) |
| --- | --- | --- |
| GUACAGCAAUAUUACGGUAG | -1.31 ± 0.062 | -0.303 ± 0.068 |
| GUAGAGCAAUAUUACGAAGC | -2.62 ± 0.24 | -0.723 ± 0.26 |
| GUAGAGCAAUAUUACGAGCA | -0.443 ± 0.17 | -0.601 ± 0.22 |
| GUAGAGCAAUAUUACGAGUC | -2.19 ± 0.17 | -1.47 ± 0.24 |
| GUAGAGCAAUAUUACGAGUU | -2.39 ± 0.2 | -1.85 ± 0.2 |
| GUAGAGCAAUAUUACGCAUG | -1.94 ± 0.13 | -0.699 ± 0.19 |
| GUAGAGCAAUAUUACGCCCA | -1.56 ± 0.2 | -0.471 ± 0.25 |
| GUAGAGCAAUAUUACGCCCC | -1.39 ± 0.19 | -0.63 ± 0.28 |
| GUAGAGCAAUAUUACGCCUG | -1.21 ± 0.31 | -0.594 ± 0.32 |
| GUAGAGCAAUAUUACGCGGC | -3.37 ± 0.2 | -2.07 ± 0.18 |
| GUAGAGCAAUAUUACGCGUU | -0.368 ± 0.065 | -0.909 ± 0.11 |
| GUAGAGCAAUAUUACGCUGU | -1.88 ± 0.2 | -0.607 ± 0.22 |
| GUAGAGCAAUAUUACGGGCA | -1.69 ± 0.15 | -0.35 ± 0.21 |
| GUAGAGCAAUAUUACGGGUU | -4.13 ± 0.3 | -2.15 ± 0.22 |
| GUAGAGCAAUAUUACGUAAU | -2.04 ± 0.13 | -0.878 ± 0.12 |
| GUAGAGCAAUAUUACGUAGC | -1.16 ± 0.19 | – |
| GUAUAGCAAUAUUACGAGAU | -3 ± 0.29 | -1.22 ± 0.22 |
| GUAUAGCAAUAUUACGAUCU | -1.16 ± 0.19 | 0.209 ± 0.21 |
| GUAUAGCAAUAUUACGAUGU | -1.07 ± 0.12 | -0.00633 ± 0.17 |
| GUAUAGCAAUAUUACGAUUU | -1.63 ± 0.11 | 0.247 ± 0.13 |
| GUAUAGCAAUAUUACGCAAA | -3.07 ± 0.29 | -1.7 ± 0.25 |
| GUAUAGCAAUAUUACGCACU | -1.9 ± 0.16 | -0.384 ± 0.14 |
| GUAUAGCAAUAUUACGCCCC | -1.21 ± 0.2 | -0.594 ± 0.29 |
| GUAUAGCAAUAUUACGCCCU | -0.766 ± 0.2 | 0.0529 ± 0.26 |

| Sequence | self-splicing fitness (ln) (30 °C) | self-splicing fitness (ln) (37 °C) |
| --- | --- | --- |
| GUAUAGCAAUAUUACGCUCU | -1.76 ± 0.13 | -1.23 ± 0.15 |
| GUAUAGCAAUAUUACGGAAG | – | -1.92 ± 0.27 |
| GUAUAGCAAUAUUACGGCGC | -0.053 ± 0.11 | -0.157 ± 0.12 |
| GUAUAGCAAUAUUACGGCGU | -0.696 ± 0.13 | 0.267 ± 0.19 |
| GUAUAGCAAUAUUACGGCUG | -1.2 ± 0.079 | -0.532 ± 0.097 |
| GUAUAGCAAUAUUACGUAUG | -3.06 ± 0.15 | -1.93 ± 0.15 |
| GUAUAGCAAUAUUACGUCAC | -3 ± 0.29 | -1.7 ± 0.26 |
| GUAUAGCAAUAUUACGUCUA | -0.881 ± 0.17 | -1.01 ± 0.18 |
| GUAUAGCAAUAUUACGUGGA | -3.62 ± 0.28 | -2.23 ± 0.18 |
| GUAUAGCAAUAUUACGUUAG | -2.87 ± 0.21 | -1.07 ± 0.22 |
| GUAUAGCAAUAUUACGUUGC | -2.83 ± 0.26 | – |
| GUCAAGCAAUAUUACGAACU | -2.42 ± 0.11 | -1.38 ± 0.12 |
| GUCAAGCAAUAUUACGAAGC | -3.84 ± 0.27 | -2.54 ± 0.2 |
| GUCAAGCAAUAUUACGACAG | -4.39 ± 0.33 | -2.93 ± 0.33 |
| GUCAAGCAAUAUUACGACAU | -1.673 ± 0.012 | -0.579 ± 0.032 |
| GUCAAGCAAUAUUACGAGAA | -3.59 ± 0.36 | -1.83 ± 0.2 |
| GUCAAGCAAUAUUACGAGCU | -3.49 ± 0.17 | -1.85 ± 0.15 |
| GUCAAGCAAUAUUACGAUAC | -3.1 ± 0.14 | -1.16 ± 0.09 |
| GUCAAGCAAUAUUACGAUAU | -1.28 ± 0.07 | -0.525 ± 0.078 |
| GUCAAGCAAUAUUACGAUGG | -4.88 ± 0.38 | -3.68 ± 0.27 |
| GUCAAGCAAUAUUACGCAUA | -1.58 ± 0.063 | -0.367 ± 0.06 |
| GUCAAGCAAUAUUACGCCUC | -1.25 ± 0.25 | 0.644 ± 0.41 |
| GUCAAGCAAUAUUACGCUUA | -2.07 ± 0.14 | -0.67 ± 0.12 |
| GUCAAGCAAUAUUACGGAGA | -3.61 ± 0.26 | -3.41 ± 0.39 |
